Experimental data: publication PMC7092895 (Biochemical and Biophysical Research Communications, 2005)

Legend:
Experiment in all cases: ELISA
[1] = molecular target: interleukin 6 (IL-6) (Homo sapiens (assumed; ), UniProt P05231)
[2] = molecular target: recombinant SARS-CoV nucleocapsid protein (SCoV-N), His6-tagged (SARS-CoV, strain CUHK-W1, UniProt P59595)
[3] = molecular target: recombinant interleukin 11 (IL-11) (Homo sapiens (assumed; ), UniProt P20809)
recombinant interleukin 11 (IL-11), sequence (P20809 22-199): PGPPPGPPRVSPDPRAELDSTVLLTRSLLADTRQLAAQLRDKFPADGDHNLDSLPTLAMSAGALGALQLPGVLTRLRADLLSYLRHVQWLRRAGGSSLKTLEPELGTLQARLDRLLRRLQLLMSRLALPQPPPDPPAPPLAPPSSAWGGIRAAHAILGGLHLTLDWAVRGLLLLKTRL

recombinant SARS-CoV nucleocapsid protein (SCoV-N), His6-tagged, sequence (P59595 whole entry): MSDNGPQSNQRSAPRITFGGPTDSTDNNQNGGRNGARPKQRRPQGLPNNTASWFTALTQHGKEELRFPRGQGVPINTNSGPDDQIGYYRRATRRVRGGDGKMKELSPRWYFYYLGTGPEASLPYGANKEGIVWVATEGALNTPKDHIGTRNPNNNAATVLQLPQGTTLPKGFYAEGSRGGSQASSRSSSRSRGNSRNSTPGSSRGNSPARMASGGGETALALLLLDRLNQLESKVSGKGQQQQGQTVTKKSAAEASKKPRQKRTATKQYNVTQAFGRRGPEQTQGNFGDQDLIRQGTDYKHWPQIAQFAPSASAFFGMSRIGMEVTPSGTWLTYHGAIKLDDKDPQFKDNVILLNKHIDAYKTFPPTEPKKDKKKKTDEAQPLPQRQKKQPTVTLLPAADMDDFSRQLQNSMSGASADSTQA
interleukin 6 (IL-6), sequence (P05231 30-212): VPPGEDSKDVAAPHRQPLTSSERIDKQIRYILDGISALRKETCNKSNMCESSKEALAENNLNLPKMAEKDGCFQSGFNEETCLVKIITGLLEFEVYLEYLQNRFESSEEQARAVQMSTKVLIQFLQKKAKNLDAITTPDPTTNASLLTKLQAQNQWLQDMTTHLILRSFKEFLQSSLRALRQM

B1: anti-N scFv L9N01 (scFv-phage clone) (scFv, V domains shown)
VH: GEAAAVQGTEVVKPGASVKLSCKASGYIFTSYDIDWVRQTPEQGLEWIGWIFPGEGSTEYNEKFKGRATLSVDKSSSTAYMELTRLTSEDSAVYFCARGDYYRRYFDLWGQGTTVTVSS
VL: DIELTQSPAIMSASPGERVTMTCSASSSIRYIYWYQQKPGSSPRLLIYDTSNVAPGVPFRFSGSGSGTSYSLTINGMEAEDAATYYCQEWSGYPYTFGGGTKLELK
- binding result [1]: no binding
- binding result [2]: binds
- binding result [3]: binds
